This note sets out measurements from US20250074973A1 (ANNEXON, published 2025).

The target of this experiment is T1, human C1q (complement factor C1q, chains A, B and C) (Homo sapiens, UniProt P02745 23-245; P02746 28-253; P02747 29-245).
T1 construct: Endogenous C1q in serum and CSF of the treated human subjects
In words: in vivo target engagement (PK/PD) in serum and CSF of dosed HD patients.

T1 sequence (P02745 23-245 limits assumed, chain 1 of 3): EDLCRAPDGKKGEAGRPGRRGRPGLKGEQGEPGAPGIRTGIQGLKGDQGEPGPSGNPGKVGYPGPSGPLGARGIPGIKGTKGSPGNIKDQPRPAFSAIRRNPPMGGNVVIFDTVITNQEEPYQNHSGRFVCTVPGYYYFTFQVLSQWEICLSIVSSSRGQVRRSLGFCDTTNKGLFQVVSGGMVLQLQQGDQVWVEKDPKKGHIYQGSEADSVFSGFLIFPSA
T1 sequence (P02746 28-253 limits assumed, chain 2 of 3): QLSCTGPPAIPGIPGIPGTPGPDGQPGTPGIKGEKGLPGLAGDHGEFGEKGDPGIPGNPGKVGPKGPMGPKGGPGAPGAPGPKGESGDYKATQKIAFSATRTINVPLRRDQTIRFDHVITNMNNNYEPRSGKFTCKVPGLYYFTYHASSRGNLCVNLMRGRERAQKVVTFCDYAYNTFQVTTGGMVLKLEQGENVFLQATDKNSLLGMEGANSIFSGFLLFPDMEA
T1 sequence (P02747 29-245 limits assumed, chain 3 of 3): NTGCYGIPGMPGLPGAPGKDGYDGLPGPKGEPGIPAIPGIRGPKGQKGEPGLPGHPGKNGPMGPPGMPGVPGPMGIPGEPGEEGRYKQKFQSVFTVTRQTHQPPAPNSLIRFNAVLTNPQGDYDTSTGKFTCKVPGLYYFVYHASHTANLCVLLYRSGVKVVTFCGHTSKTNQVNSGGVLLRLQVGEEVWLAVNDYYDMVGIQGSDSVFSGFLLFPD

B1: full-length C1q antibody (heavy chain SEQ ID NO: 14; light chain SEQ ID NO: 40) (antibody, human IgG4 S228P, kappa)
heavy: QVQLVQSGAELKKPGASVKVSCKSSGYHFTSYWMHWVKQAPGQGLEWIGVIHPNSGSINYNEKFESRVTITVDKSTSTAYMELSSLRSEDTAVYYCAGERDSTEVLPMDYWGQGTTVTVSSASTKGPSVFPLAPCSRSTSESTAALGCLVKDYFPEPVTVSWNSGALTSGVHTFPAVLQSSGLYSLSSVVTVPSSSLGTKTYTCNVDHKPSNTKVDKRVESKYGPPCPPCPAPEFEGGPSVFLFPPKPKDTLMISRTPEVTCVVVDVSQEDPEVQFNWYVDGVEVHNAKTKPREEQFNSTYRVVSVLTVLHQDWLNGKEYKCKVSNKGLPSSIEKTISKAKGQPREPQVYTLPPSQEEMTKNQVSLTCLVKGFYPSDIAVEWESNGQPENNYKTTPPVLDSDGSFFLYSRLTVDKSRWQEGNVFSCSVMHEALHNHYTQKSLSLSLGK
light: DVQITQSPSSLSASLGERATINCRASKSINKYLAWYQQKPGKAPKLLIYSGSTLQSGIPARFSGSGSGTDFTLTISSLEPEDFAMYYCQQHNEYPLTFGQGTKLEIKRTVAAPSVFIFPPSDEQLKSGTASVVCLLNNFYPREAKVQWKVDNALQSGNSQESVTEQDSKDSTYSLSSTLTLSKADYEKHKVYACEVTHQGLSSPVTKSFNRGEC
notes: also called full-length anti-C1q antibody; anti-C1q antibody
As to B1, the binding result was “binds”.
